Results on two molecules are retold here after PMC4005679, “In vitro assembly and activity of an archaeal CRISPR-Cas type I-A Cascade interference complex” (Nucleic Acids Research, 2014).

The target in series [1] is T1, Csa5;Cas7;Cas5a;Cas3';Cas3'';Cas8a2 (Thermoproteus tenax Kra1;Thermoproteus …, UniProt G4RJZ0;G4RJZ1;G4RJZ2;G4RJZ3;G4RJZ4;G4RJZ5 1-130;1-329;1-226;1-566;1-226;1-361, |||||). The experiment in a line: EMSA; yeast RNA competitor; Ca2+ during reconstitution; 0.125-5 uM Cascade; affinity similar to crRNA 5.13; 100 mM HEPES/KOH pH 7, 100 mM NaCl, 10 mM beta-mercaptoethanol, 50 ng yeast RNA, 30 min at 70 C (Cascade; 6% native TBE-PAGE); Cas7 alone without yeast RNA at 80 C, agarose gel; 2-4 nM labeled crRNA. The conditions noted are these: protein: recombinant;recombinant;recombinant;recombinant;recombinant;recombinant; tags: untagged;His-SUMO tag cleaved off;;;;; label: 5'-32P (EMSA); unlabeled in SEC; single strand. (In general: In EMSA bound probe runs differently from free probe, usually more slowly.)

For series [2], the target named is T1, Csa5;Cas7;Cas5a;Cas3';Cas3'';Cas8a2. As to the kind of experiment: EMSA; yeast RNA competitor; Ca2+ during reconstitution; 0.125-2 uM Cascade; 100 mM HEPES/KOH pH 7, 100 mM NaCl, 10 mM beta-mercaptoethanol, 50 ng yeast RNA, 30 min at 70 C (Cascade; 6% native TBE-PAGE); Cas7 alone without yeast RNA at 80 C, agarose gel; 2-4 nM labeled crRNA. The following applies: protein: recombinant;recombinant;recombinant;recombinant;recombinant;recombinant; tags: untagged;His-SUMO tag cleaved off;;;;; label: 5'-32P; single strand.

B1: crRNA 5.2 (ssRNA)
RNA: AUUGAAAGCGUUGAUGCGGCCGCGACUGGCUGACUCAGCUAUUACGUUGA
modifications: 5'-OH from hammerhead cleavage before labeling
Take B1: the binding result in series [1] is given as “binds”.

B2: crRNA 5.13 (ssRNA)
RNA: AUUGAAAGAUCGCUUGUCCAACCGGGCUCCUCUAUAUGUCGUCAUUAGCUUAGA
modifications: 5'-OH from hammerhead cleavage before labeling
On to B2, for which the binding result in series [2] is “binds”.
